# Reference: the RNAGym collection of RNA variant scans (doi:10.7554/elife.80360)
# B1: Hairpin Ribozyme (parent)
# chain: GUCCUCUUUCACGUGCGCGUGAAAGAGAGAAGUGAACCAGAGAAACACACGUUGUGGUAUAUUACCUGGUA
# Variants of: B1
# Assay: self-cleavage, relative activity (ratio to wild type); higher = more cleavage; co-transcriptional
row,Variant,self-cleavage
1,A39G A47C,0.166
2,A39G A49C,0.176
3,A39C A71U,0.136
4,A39C A71G,0.248
5,A41G A44C,0.109
6,C38G A43G,0.171
7,G40A C50U,0.195
8,C38U A64G,0.306
9,C38U A64C,0.233
10,A39G U60G,0.21
11,C38U U70A,0.522
12,A41C U67A,0.27
13,G40U U55A,0.104
14,C38U U58G,0.447
15,A39C A45G,0.105
16,A39G G56C,0.117
17,A41C C48A,0.218
18,A39G C48U,0.0998
19,C38A G69C,0.168
20,C38A G68A,0.148
21,G40C A61U,0.224
22,A41G U52A,0.669
23,G40C U52A,0.209
24,G40U A47U,0.131

row,Variant,self-cleavage
1,A41C G54U,0.724
2,G40A A47U,0.154
3,G40A A47C,0.194
4,C38A G40U,0.23
5,C38A G40C,0.103
6,G40U A44G,0.161
7,A39U G68C,0.0955
8,A39U G68A,0.199
9,G40A U67G,0.147
10,C38A U55C,0.116
11,G40U U67A,0.159
12,C38G G51C,0.147
13,A39U U55G,0.108
14,A39U U55C,0.183
15,G40A U63A,0.161
16,G40A U63C,0.15
17,G40A A49C,0.0897
18,C38G U63C,0.178
19,C38G G42U,0.172
20,G40U C50U,0.11
21,A39G A71G,0.222
22,A39U C65A,0.238
23,A39U C65U,0.201
24,A39G U70C,0.372

row,Variant,self-cleavage
1,A39G U70A,0.2
2,A39G U70G,0.332
3,G40C G51A,0.115
4,G40C U62C,0.143
5,G40C U62A,0.116
6,C38U G54A,0.269
7,G40A G69A,0.122
8,G40U U70A,0.123
9,C38U G68U,0.605
10,C38U G68A,0.931
11,A39U G51A,0.585
12,A39U G51C,0.35
13,A41C U70C,1.04
14,G40C A44G,0.101
15,G40C A44U,0.151
16,A41C G56U,0.0688
17,A41C A43U,0.13
18,A39U C46G,0.164
19,A39U U70A,0.289
20,G40C U58G,0.199
21,C38U A39G,0.3
22,C38U A39U,0.185
23,G40C U60C,0.135
24,A41G A45C,0.101

row,Variant,self-cleavage
1,A41G A45G,0.225
2,A41G A45U,0.105
3,C38G G54A,0.105
4,G40A U58C,0.558
5,A39C U58A,0.231
6,A39C U58G,0.315
7,A39U A71G,0.221
8,A39G U52A,0.23
9,A39C A47G,0.172
10,C38G A39G,0.117
11,C38G A39C,0.146
12,A41C G69U,0.341
13,A41C G69A,0.524
14,A41C G69C,0.287
15,A39G C50G,0.111
16,A39G A43G,0.0922
17,C38G C65U,0.0351
18,A39C A64U,0.16
19,A39C A64G,0.0974
20,A39G U67G,0.147
21,A39G U67C,0.544
22,G40U A49C,0.118
23,G40U A49U,0.0847
24,G40U A41U,0.221

row,Variant,self-cleavage
1,A39G A45U,0.111
2,A41C U55G,0.285
3,A41G U58G,1.1
4,A39U G40A,0.134
5,A39U G40U,0.149
6,A39U G40C,0.149
7,G40U U58C,0.278
8,C38A C66U,0.0169
9,C38A C66A,0.216
10,A39G A64U,0.123
11,A39G A64C,0.174
12,C38A U62C,0.0746
13,A41G U55A,0.228
14,C38U U55A,0.168
15,A39U C48A,0.135
16,A39U C48G,0.124
17,A39U C48U,0.206
18,A41C C46U,0.0492
19,A41C C46A,0.0559
20,A39U A59C,0.172
21,A39U A59G,0.101
22,A39U A59U,0.184
23,G40A A71G,0.402
24,A39C G40A,0.112

row,Variant,self-cleavage
1,A39C G40U,0.0957
2,C38G U60C,0.233
3,A39U,0.424
4,A39C,0.539
5,A39G,0.299
6,G40U A71U,0.131
7,G40C A71G,0.165
8,G40C A71C,0.401
9,A41C A64C,0.285
10,C38A U70C,0.115
11,C38A U70G,0.141
12,A41C A71C,1.53
13,G40C A59U,0.198
14,A41G C65G,1.13
15,A39G G51A,0.396
16,G40C U70G,0.131
17,G40C U70C,0.13
18,G40C U70A,0.143
19,A41C U53A,0.786
20,A39C U70C,0.247
21,G40A G54A,0.19
22,G40A G54C,0.0891
23,C38U A47U,0.151
24,A41G A59G,0.17

row,Variant,self-cleavage
1,G40U A64G,0.103
2,A39G C46A,0.0818
3,A39G C46G,0.113
4,A39G C46U,0.119
5,C38A U58A,0.211
6,A41C A61C,0.456
7,G40U G69A,0.143
8,C38U C65U,0.12
9,G40U U60G,0.128
10,C38G U62A,0.127
11,A39C C65A,0.233
12,A41C G57A,0.128
13,C38U A44G,0.0449
14,G40C C65G,0.156
15,G40C C65A,0.145
16,A39C A61G,0.131
17,A39C G51A,0.751
18,C38A C65A,0.198
19,C38U U52G,0.261
20,C38U U52A,0.509
21,A39C A59U,0.172
22,A39C A59G,0.126
23,A39C A59C,0.114
24,G40U A61U,0.132

row,Variant,self-cleavage
1,G40U A61C,0.0593
2,A41C U62C,0.329
3,C38U A49G,0.343
4,C38U A49U,0.137
5,C38G U70C,0.157
6,C38U C50U,0.249
7,A41G G42U,0.236
8,A39U G54A,0.122
9,G40C C50U,0.198
10,C38U A59G,0.194
11,G40A U60C,0.413
12,G40A G57U,0.0976
13,G40A G57C,0.0825
14,A39G G57U,0.0985
15,A39G G57C,0.105
16,A39G G57A,0.129
17,G40A U55G,0.121
18,G40A U55C,0.144
19,A39C G57A,0.215
20,A39G C65A,0.442
21,G40U G57A,0.128
22,C38U A61G,0.26
23,C38U A61C,0.197
24,A39C C50G,0.0993

row,Variant,self-cleavage
1,A39C C50A,0.165
2,G40A G51A,0.578
3,C38G G57U,0.116
4,A39C A44C,0.17
5,G40A G56A,0.117
6,A41C U60G,0.998
7,A39U A43G,0.103
8,A39U A43U,0.223
9,C38G A59C,0.12
10,C38U U67C,0.121
11,A39U U58G,0.227
12,A39U U58C,0.46
13,A39U U58A,0.328
14,A39C U53G,0.207
15,A39U U62C,0.133
16,A39C G68U,0.229
17,A39C G68A,0.215
18,A41G A64C,0.0864
19,A41G A64U,0.206
20,A39U A41C,0.3
21,A39U A41U,0.458
22,A41G C46U,0.0954
23,C38A C50U,0.15
24,C38A C50A,0.0919

row,Variant,self-cleavage
1,C38A U53C,0.228
2,C38A U53A,0.215
3,G40A G42C,0.0893
4,A39C A43G,0.085
5,G40C U55C,0.163
6,G40C U55G,0.138
7,A41C A47C,0.468
8,A39C C48A,0.171
9,G40U G42C,0.0925
10,C38G A71U,0.138
11,C38G A71G,0.172
12,A39U A64U,0.16
13,A39U A64C,0.177
14,G40C A49G,0.132
15,G40C A49C,0.0764
16,G40C A49U,0.169
17,C38A U60G,0.218
18,C38G G40C,0.0961
19,G40U C66G,0.11
20,G40U C66A,0.593
21,A41C C65A,0.782
22,A41C C65U,0.513
23,A41C C65G,0.247
24,A39C C46A,0.191

row,Variant,self-cleavage
1,A39C C46U,0.103
2,A39C C46G,0.13
3,A39G U62C,0.145
4,A39G U62A,0.12
5,G40C A41G,0.163
6,C38U U62G,0.124
7,A39C U67C,0.149
8,C38A G42U,0.112
9,C38A G42C,0.0881
10,A41G C50U,0.385
11,A41G C50G,0.325
12,C38U G40A,0.203
13,C38U C46U,0.0928
14,C38U G69U,0.283
15,G40C G57A,0.111
16,C38U G51U,0.774
17,C38U G51A,0.786
18,C38U A45U,0.113
19,A39C U60G,0.33
20,A39C U60C,0.784
21,A39C U60A,0.359
22,G40A C46U,0.147
23,G40A C46G,0.136
24,G40A U53A,0.424

row,Variant,self-cleavage
1,A39C A49G,0.208
2,A39C A41U,0.406
3,G40U A59U,0.14
4,C38G G68C,0.591
5,A41C G68U,0.177
6,A41C G68A,0.249
7,A41C G68C,0.225
8,A39G U53C,0.273
9,A39G U53G,0.207
10,A41C A44G,0.241
11,A41C A44U,0.154
12,A39C U55G,0.205
13,G40U G54C,0.155
14,G40U G54A,0.157
15,G40A A59G,0.0897
16,C38U C48U,0.174
17,C38U C48G,0.123
18,G40U A45C,0.103
19,G40U A45U,0.219
20,G40U A45G,0.132
21,G40C A45U,0.267
22,G40C A45G,0.0193
23,A39G U63G,0.147
24,A39G U63C,0.158

row,Variant,self-cleavage
1,G40C G42A,0.0581
2,G40C G42U,0.191
3,C38U G57U,0.175
4,A39U G42A,0.18
5,A39U G42C,0.158
6,C38A G51C,0.223
7,A39U U60G,0.256
8,A41C G42C,0.218
9,G40C G56U,0.152
10,A39C U52G,0.267
11,G40A A61C,0.14
12,A39U U53G,0.179
13,G40C U53A,0.235
14,A41G G56C,0.165
15,G40C A47G,0.0685
16,G40C C46G,0.21
17,A39U A44G,0.119
18,A41C U52C,0.79
19,C38U C66G,0.255
20,A39C U63G,0.122
21,G40U G68U,0.195
22,A41G C48A,0.0982
23,A41G A49C,0.0938
24,A41C A59G,0.152

row,Variant,self-cleavage
1,G40U A43C,0.165
2,A39U A47C,0.168
3,C38G U67A,0.224
4,G40U C46U,0.106
5,G40U C46A,0.16
6,G40A A45G,0.147
7,A41G G68A,0.55
8,G40C U67A,0.0737
9,A39G G69A,0.112
10,A39G G69C,0.101
11,C38U A43C,0.0947
12,C38A U67G,0.137
13,C38A U67A,0.124
14,C38G A61G,0.166
15,C38G A61U,0.227
16,A39G A44G,0.129
17,A39C G54U,0.103
18,C38G A49U,0.137
19,G40U G51U,0.179
20,G40U G51A,0.283
21,A39U U63A,0.114
22,A39U U63G,0.137
